From PMC3784511

Molecular target: T1, NF-kB p50 homodimer (UniProt P19838)
T1 sequence: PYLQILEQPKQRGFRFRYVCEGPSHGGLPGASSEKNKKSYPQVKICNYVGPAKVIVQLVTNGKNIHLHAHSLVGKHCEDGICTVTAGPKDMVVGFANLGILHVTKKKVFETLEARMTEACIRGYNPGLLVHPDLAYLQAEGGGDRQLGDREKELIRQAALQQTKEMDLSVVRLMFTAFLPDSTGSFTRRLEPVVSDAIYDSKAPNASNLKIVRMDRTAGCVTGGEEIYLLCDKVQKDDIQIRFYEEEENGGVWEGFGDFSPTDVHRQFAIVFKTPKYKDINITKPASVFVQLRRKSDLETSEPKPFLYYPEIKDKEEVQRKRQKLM
Experiment: UV laser footprinting
Settings: 10 mM Tris pH 7.4, 75 mM NaCl, 1 mM EDTA, 1 mM DTT, 100 ug/ml BSA, 0.01% NP40 (omitted in dilution experiments), 5% glycerol, 37 C; naked DNA supplemented with …

GCTCGGAATTCTATCCGACTGGCACCGGCAAGGTCGCTGTTCAATACATGCACAGGATGTATATATCTGACACGTGCCTGGAGACTAGGTAGTAATTCTCTTGGCGGTTAAAACGCGGTGTACAGCGCGTACGTGCGTTTAAGCGGTGCTAGAGCTTGCTACGACCAATTGAGCGGCCTCGGCACGGGGATTCCCCAGGTCGGCCGCGTATAGTGTCCATCACATAAGTGATGAACTCGGTCTTAAGAATCATGC (double strand) [601_D7 DNA (255 bp)]
Kd: 14 nM
